Assay results: patent US5604098

Biological target: T1, CviJ I restriction endonuclease (Chlorella virus IL-3A (infected Chlorella NC64A)) (UniProt P52283)
T1 sequence: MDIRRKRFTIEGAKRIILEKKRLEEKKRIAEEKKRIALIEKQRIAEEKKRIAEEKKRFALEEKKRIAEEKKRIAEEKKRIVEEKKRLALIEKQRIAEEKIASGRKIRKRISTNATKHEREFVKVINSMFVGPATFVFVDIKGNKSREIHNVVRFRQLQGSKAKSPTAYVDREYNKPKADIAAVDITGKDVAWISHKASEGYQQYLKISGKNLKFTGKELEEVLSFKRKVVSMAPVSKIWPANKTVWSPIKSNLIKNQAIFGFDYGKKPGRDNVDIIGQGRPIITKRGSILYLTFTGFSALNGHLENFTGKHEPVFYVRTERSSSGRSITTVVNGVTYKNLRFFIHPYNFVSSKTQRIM
Assay: cleavage_in_vitro
Conditions: for activity (% of cleaved junctions): CviJ I* complete digest; for activity (% of cloned junctions): CviJ I** partial digest

What does the source list for AGCA (double strand) [AGCA site]?
activity (% of cleaved junctions) (13 cleaved, 5 not cleaved): 6.5; activity (% of cloned junctions): 1.3

With AGCC (double strand) [AGCC site] as the sequence, how does the activity (% of cleaved junctions) (23 cleaved, 1 not cleaved) read?
The activity (% of cleaved junctions) was 11.5.

What about the activity (% of cloned junctions) (Mg, ATP, DTT, 20% DMSO, low salt) of the same sequence?
Its activity (% of cloned junctions) is 17.1.

What does the source list for AGCG (double strand) [AGCG site]?
activity (% of cleaved junctions) (12 cleaved, 11 not cleaved): 6; activity (% of cloned junctions): 0

For AGCT (double strand) [AGCT site], which activity (% of cleaved junctions) (35 cleaved, 0 not cleaved) is on record?
The activity (% of cleaved junctions) was 17.5.

What about the activity (% of cloned junctions) of the same sequence?
The activity (% of cloned junctions) was 32.9.

What does the source list for CGCA (double strand) [CGCA site]?
activity (% of cleaved junctions) (12 not cleaved): 0; activity (% of cloned junctions): 0

Which results are given for CGCC (double strand) [CGCC site]?
activity (% of cleaved junctions) (11 cleaved, 4 not cleaved): 5.5; activity (% of cloned junctions): 0

How did the activity (% of cleaved junctions) (27 not cleaved) turn out when CGCG (double strand) [CGCG site] was run?
Its activity (% of cleaved junctions) is 0.

And the activity (% of cloned junctions)?
Its activity (% of cloned junctions) is 0.

Which results are given for CGCT (double strand) [CGCT site]?
activity (% of cleaved junctions) (17 cleaved, 7 not cleaved): 8.5; activity (% of cloned junctions): 2.6

Which results are given for GGCA (double strand) [GGCA site]?
activity (% of cleaved junctions) (11 cleaved, 3 not cleaved): 5.5; activity (% of cloned junctions): 0

GGCC (double strand) [GGCC site] was tested. Which activity (% of cleaved junctions) (24 cleaved, 1 not cleaved) did it give?
The activity (% of cleaved junctions) was 12.

And the activity (% of cloned junctions)?
The activity (% of cloned junctions) was 21.1.

With GGCG (double strand) [GGCG site] as the sequence, how does the activity (% of cleaved junctions) (18 cleaved, 8 not cleaved) read?
The activity (% of cleaved junctions) was 9.

What about the activity (% of cloned junctions) of the same sequence?
The activity (% of cloned junctions) was 5.2.

With GGCT (double strand) [GGCT site] as the sequence, how does the activity (% of cleaved junctions) (13 cleaved, 0 not cleaved) read?
The activity (% of cleaved junctions) was 6.5.

What about the activity (% of cloned junctions) of the same sequence?
The activity (% of cloned junctions) was 15.8.

Which activity (% of cleaved junctions) (19 not cleaved) does the source give for TGCA (double strand) [TGCA site] here?
The activity (% of cleaved junctions) was 0.

What about the activity (% of cloned junctions) of the same sequence?
Its activity (% of cloned junctions) is 0.

TGCC (double strand) [TGCC site] was tested. Which activity (% of cleaved junctions) (13 cleaved, 10 not cleaved) did it give?
The activity (% of cleaved junctions) was 6.5.

What about the activity (% of cloned junctions) of the same sequence?
Its activity (% of cloned junctions) is 2.6.

How did the activity (% of cleaved junctions) (3 not cleaved) turn out when TGCG (double strand) [TGCG site] was run?
Its activity (% of cleaved junctions) is 0.

What about the activity (% of cloned junctions) of the same sequence?
The activity (% of cloned junctions) was 0.

How did the activity (% of cleaved junctions) (10 cleaved, 5 not cleaved) turn out when TGCT (double strand) [TGCT site] was run?
Its activity (% of cleaved junctions) is 5.

And the activity (% of cloned junctions)?
The activity (% of cloned junctions) was 1.3.
